In publication PMC5712553, “A Novel TetR Family Transcriptional Regulator, CalR3, Negatively Controls Calcimycin Biosynthesis in Streptomyces chartreusis NRRL 3882”:
Where a chain is given by its changes, count along the chain named.

Legend:
[1] = biological target: T1, CalR3 (Streptomyces chartreusis NRRL 3882) (UniProt F8QZR9); assay: EMSA; conditions: EMSA: 20 mM Tris-Cl pH 8.0, 100 mM KCl, 10 mM DTT, 37 C, 30 min, 20 ul, footprinting: 25 C, 500 ng probe in 40 ul
T1 sequence: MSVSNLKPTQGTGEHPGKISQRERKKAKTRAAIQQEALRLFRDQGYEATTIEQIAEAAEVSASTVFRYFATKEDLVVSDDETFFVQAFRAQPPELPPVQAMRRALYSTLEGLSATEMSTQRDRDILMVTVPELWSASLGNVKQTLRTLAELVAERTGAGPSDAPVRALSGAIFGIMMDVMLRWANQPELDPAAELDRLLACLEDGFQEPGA

CalR3 [2] = biological target: T2, CalR3 (Streptomyces chartreusis NRRL 3882, UniProt F8QZR9 1-211); assay: EMSA; 1.5 uM probe, 0.8 uM CalR3; EMSA: 20 mM Tris-Cl pH 8.0, 100 mM KCl, 10 mM DTT, 37 C, 30 min, 20 ul; footprinting: 25 C, 30 min, 500 ng probe in 40 ul; conditions: protein: recombinant; tags: N-terminal His6 (pET28a); chain copies: 2
T2 sequence: T1 sequence

CalR3 [3] = biological target: T2, CalR3; assay: EMSA; 1.5 uM probe, 0.8 uM CalR3; two shifted bands; EMSA: 20 mM Tris-Cl pH 8.0, 100 mM KCl, 10 mM DTT, 37 C, 30 min, 20 ul; footprinting: 25 C, 30 min, 500 ng probe in 40 ul; conditions: protein: recombinant; tags: N-terminal His6 (pET28a); chain copies: 2

CCAGCCGGTAAAGAGCGAGCCTCATGACAGGCAACCTTCTTTTAGGAGTCGACTTTCAATTGATAGCCTACTAGCACTTTGAGGAGATGAGAACTCCTCCTCGCTGCCACC (double strand) [T-R3L]
binding [1]: binds

TCCCTTGCGTCGGTTTCAGGTTGGACACGCTCATGCTCCACATTCTCCAGGCTCTCCGGCGGCCGGCCGGTCACGGCTGTGCCGCGCCCGGCCGCGTGCGGCGGTGGCAGCGAGGAGGAG (double strand) [T-R3R]
binding [1]: no binding

TGACAGGCAACCTTCTTTTAGGAGTCGACTTTCAATTGATAGCCTACTAGCACTTTGAGGAGATGAGAACTCCTCCTCGCTGCCACCGCCGCACGCGGCCGGGCGCGGCACAGCCGTGACCGGCCGGCCGCCGGAGAGCCTGGAGAATGTGGAGCA (double strand) [T-R3 (calT-calR3 intergenic)]
binding [1]: binds

B1: m1 (site II palindrome mutated) (dsDNA)
DNA 1: AAGAGCGAGCCTCATGACAGGCAACCTTCTTTTAGGAGTCGAGAATTCTAGATATCCCTACTAGCACTTTGAGGAGATGA
DNA 2: TCATCTCCTCAAAGTGCTAGTAGGGATATCTAGAATTCTCGACTCCTAAAAGAAGGTTGCCTGTCATGAGGCTCGCTCTT
binding result (CalR3 [2]): no binding

B2: m1&2 (sites I and II mutated) (dsDNA)
DNA 1: B1 DNA 1 with T15A, G16C, A17T, C18G
DNA 2: B1 DNA 2 with G63C, T64A, C65G, A66T
binding result (CalR3 [2]): no binding

B3: m0 (dsDNA)
DNA 1: AAGAGCGAGCCTCATGACAGGCAACCTTCTTTTAGGAGTCGACTTTCAATTGATAGCCTACTAGCACTTTGAGGAGATGA
DNA 2: TCATCTCCTCAAAGTGCTAGTAGGCTATCAATTGAAAGTCGACTCCTAAAAGAAGGTTGCCTGTCATGAGGCTCGCTCTT
binding result (CalR3 [3]): binds
